Reference: patent publication US20050209148A1 (RINAT NEUROSCIENCE, published 2005)
Like-named read-outs stand apart in the source and are kept apart here.

B1: human NT-4/5 (mature human neurotrophin-4/5) (ligand)
chain: GVSETAPASRRGELAVCDAVSGWVTDRRTAVDLRGREVEVLGEVPAAGGSPLRQYFFETRCKADNAEEGGPGAGGGGCRGVDRRHWVSECKAKQSYVRALTADAQGRVGWRWIRIDTACVCTLLSRTGRA
B2: 1PEG-NT4-G1S (ligand)
chain 1: SVSETAPASRRGELAVCDAVSGWVTDRRTAVDLRGREVEVLGEVPAAGGSPLRQYFFETRCKADNAEEGGPGAGGGGCRGVDRRHWVSECKAKQSYVRALTADAQGRVGWRWIRIDTACVCTLLSRTGRA
chain 2: SVSETAPASRRGELAVCDAVSGWVTDRRTAVDLRGREVEVLGEVPAAGGSPLRQYFFETRCKADNAEEGGPGAGGGGCRGVDRRHWVSECKAKQSYVRALTADAQGRVGWRWIRIDTACVCTLLSRTGRA
modifications: no PEG; N-terminal serine (position 1) treated with periodate (oxidized to an aldehyde); N-terminal serine (position 1) oxidized to an aldehyde and linked to 20K-m-PEG-HZ (methoxy polyethylene glycol hydrazide, 20 kDa)
B3: 2PEG-NT4-G1S (ligand)
chain: SVSETAPASRRGELAVCDAVSGWVTDRRTAVDLRGREVEVLGEVPAAGGSPLRQYFFETRCKADNAEEGGPGAGGGGCRGVDRRHWVSECKAKQSYVRALTADAQGRVGWRWIRIDTACVCTLLSRTGRA
modifications: N-terminal serine (position 1) oxidized to an aldehyde and linked to 20K-m-PEG-HZ (methoxy polyethylene glycol hydrazide, 20 kDa)

Key:
[1] = target: T1, human TrkB expressed on a stable cell line (human, UniProt Q16620 32-822); experiment: cell-based or functional assay
[2] = target: T1, human TrkB expressed on a stable cell …; experiment: cell-based or functional assay; remark: listed apart in the source

T1 sequence (Q16620 32-822): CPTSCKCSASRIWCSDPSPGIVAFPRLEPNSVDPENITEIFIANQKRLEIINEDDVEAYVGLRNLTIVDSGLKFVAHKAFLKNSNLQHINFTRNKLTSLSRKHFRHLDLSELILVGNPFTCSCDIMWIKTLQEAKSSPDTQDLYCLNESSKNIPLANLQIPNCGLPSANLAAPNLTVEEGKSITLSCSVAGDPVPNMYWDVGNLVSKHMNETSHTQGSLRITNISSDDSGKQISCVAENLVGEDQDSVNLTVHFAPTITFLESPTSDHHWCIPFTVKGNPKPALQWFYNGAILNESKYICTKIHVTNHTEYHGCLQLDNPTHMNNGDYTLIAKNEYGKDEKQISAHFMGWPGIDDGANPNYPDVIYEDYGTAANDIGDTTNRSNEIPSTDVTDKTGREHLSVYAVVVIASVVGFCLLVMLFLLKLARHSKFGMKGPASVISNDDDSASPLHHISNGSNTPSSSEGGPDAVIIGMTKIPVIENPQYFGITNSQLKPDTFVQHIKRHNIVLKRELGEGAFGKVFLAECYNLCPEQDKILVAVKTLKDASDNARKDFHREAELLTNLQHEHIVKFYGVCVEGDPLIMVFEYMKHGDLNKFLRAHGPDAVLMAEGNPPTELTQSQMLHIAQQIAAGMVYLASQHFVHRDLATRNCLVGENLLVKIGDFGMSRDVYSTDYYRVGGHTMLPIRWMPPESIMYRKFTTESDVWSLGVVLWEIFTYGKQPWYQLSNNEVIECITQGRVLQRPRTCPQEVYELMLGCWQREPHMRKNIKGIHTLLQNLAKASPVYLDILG

Row | EC50 (read off the curve), receptor tyrosine phosphorylation in trkB expressing cell line [1] [nM] | EC50 (read off the curve), receptor tyrosine phosphorylation in trkB expressing cell line [2] [nM] | Binder
1 | ~0.7 | ~0.2 | B1
2 | ~1 |  | B2
3 | ~1 |  | B3
